Values of other authors in paper PMC5401657.
pKd: −log10 of the molar value.

Molecular target: integrin αvβ3 (Homo sapiens) (UniProt P06756)
Assay: SPR

Chain of UniProt P06756 (P06756 31-992, chain 1 of 2): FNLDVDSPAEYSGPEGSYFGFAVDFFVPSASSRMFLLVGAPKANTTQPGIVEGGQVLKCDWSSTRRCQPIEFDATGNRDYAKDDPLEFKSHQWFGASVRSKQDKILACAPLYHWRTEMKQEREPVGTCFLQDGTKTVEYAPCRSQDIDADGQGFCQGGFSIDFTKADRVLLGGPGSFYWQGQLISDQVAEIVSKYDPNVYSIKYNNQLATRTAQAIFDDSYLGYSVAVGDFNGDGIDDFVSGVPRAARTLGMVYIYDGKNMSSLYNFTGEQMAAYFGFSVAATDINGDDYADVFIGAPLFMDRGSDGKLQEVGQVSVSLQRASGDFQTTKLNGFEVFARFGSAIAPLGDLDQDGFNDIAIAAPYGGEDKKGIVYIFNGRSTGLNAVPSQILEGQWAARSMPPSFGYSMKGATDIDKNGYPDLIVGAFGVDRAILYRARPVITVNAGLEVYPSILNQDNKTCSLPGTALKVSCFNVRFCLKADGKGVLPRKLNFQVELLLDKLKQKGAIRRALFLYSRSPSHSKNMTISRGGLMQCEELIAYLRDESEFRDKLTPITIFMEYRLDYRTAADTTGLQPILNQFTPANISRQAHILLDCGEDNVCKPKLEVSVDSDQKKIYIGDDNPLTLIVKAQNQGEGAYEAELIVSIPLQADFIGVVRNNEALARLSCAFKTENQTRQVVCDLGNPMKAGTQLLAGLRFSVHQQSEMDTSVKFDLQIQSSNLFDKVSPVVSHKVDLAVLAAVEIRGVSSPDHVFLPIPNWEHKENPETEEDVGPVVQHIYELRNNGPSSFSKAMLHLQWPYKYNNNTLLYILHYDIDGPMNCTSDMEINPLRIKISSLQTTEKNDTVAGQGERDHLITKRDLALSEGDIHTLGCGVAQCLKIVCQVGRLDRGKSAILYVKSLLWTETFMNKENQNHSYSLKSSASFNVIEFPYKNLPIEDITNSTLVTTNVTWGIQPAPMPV
Chain of UniProt P06756 (P05106 27-718, chain 2 of 2, further chain): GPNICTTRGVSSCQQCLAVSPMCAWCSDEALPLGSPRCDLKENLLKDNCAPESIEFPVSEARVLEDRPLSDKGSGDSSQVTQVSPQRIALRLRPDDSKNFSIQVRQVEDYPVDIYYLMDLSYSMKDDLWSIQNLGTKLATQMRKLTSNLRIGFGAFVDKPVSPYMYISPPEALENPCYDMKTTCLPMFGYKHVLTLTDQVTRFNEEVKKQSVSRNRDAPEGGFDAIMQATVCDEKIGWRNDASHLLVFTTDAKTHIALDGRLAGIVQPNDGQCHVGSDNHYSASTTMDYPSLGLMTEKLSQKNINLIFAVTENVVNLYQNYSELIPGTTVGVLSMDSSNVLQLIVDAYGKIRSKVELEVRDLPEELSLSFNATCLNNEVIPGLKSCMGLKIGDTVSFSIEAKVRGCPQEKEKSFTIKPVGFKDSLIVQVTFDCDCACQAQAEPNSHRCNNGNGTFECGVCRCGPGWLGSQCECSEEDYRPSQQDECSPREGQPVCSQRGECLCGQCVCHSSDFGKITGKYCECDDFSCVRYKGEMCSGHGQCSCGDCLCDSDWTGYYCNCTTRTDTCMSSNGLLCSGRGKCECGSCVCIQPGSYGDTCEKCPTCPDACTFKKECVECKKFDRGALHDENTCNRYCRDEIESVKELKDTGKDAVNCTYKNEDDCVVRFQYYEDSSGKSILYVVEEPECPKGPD

IGF1 (from UniProt P05019)
pKd: 6.30
